Measured values from the Immune Epitope Database (IEDB).

Legend:
Details in all cases: source organism: Vaccinia virus WR
[1] = biological target: HLA-A*03:01; assay: IEDB peptide-MHC binding, purified MHC/competitive/radioactivity; ≥ and ≤ were set here for values at or beyond the usual limits of such assays
[2] = biological target: HLA-A*11:01; assay: IEDB peptide-MHC binding, purified MHC/competitive/radioactivity; filed as Kd, often an IC50 or EC50 that approximates it; ≥ and ≤ were set here for values at or beyond the usual limits of such assays
[3] = biological target: HLA-A*31:01; assay: as above
[4] = biological target: HLA-A*33:01; assay: as above
[5] = biological target: HLA-A*68:01; assay: as above
[6] = biological target: HLA-A*02:01; assay: IEDB peptide-MHC binding, purified MHC/competitive/radioactivity; ≥ and ≤ were set here for values at or beyond the usual limits of such assays
[7] = biological target: HLA-A*02:06; assay: IEDB peptide-MHC binding, purified MHC/competitive/radioactivity; filed as Kd, often an IC50 or EC50 that approximates it; ≥ and ≤ were set here for values at or beyond the usual limits of such assays
[8] = biological target: HLA-A*11:01; assay: IEDB peptide-MHC binding, purified MHC/competitive/radioactivity; ≥ and ≤ were set here for values at or beyond the usual limits of such assays
[9] = biological target: HLA-A*03:01; assay: IEDB peptide-MHC binding, purified MHC/competitive/radioactivity; filed as Kd, often an IC50 or EC50 that approximates it; ≥ and ≤ were set here for values at or beyond the usual limits of such assays

Row | Sequence | IC50 [1] | Kd [2] | Kd [3] | Kd [4] | Kd [5] | IC50 [6] | Kd [7] | IC50 [8] | Kd [9]
1 | AVKDVTITKK | 84 nM | 519 nM | 605 nM | ≥ 50000 nM | 1620 nM |  |  |  | 
2 | FLVIAINAM |  |  |  |  |  | 435 nM | 930 nM |  | 
3 | ATSLDVINY |  |  | 10300 nM | ≥ 50000 nM | ≥ 50000 nM |  |  | 6.8 nM | 625 nM
